# Data published in the nanobody polyreactivity screen of Harvey et al. (2022).
# Assay: yeast display, Sf9 membrane polyspecificity reagent, FACS + sequencing; frameworks hold sequencing errors
# How it was run: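 In a synthetic yeast display library (Saccharomyces cerevisiae BJ5465), nanobody expression was induced with galactose for 36–48 hours. FACS gates were set low and high (top ~1%) using anti-HA fluorescence for expression and streptavidin fluorescence for binding of the Sf9 membrane reagent. Each polyreactivity label is drawn from the gate of origin.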
row,Sequence,polyreactivity (PSR sort gate)
1,QVQLVESGGGLVKAGGSLRLSCAASGSTFERYAMGWYRQAPGKERELVAAINWSGGGTYYADSVKGRFTISRDNAKNTVYFQMNSLKPEDTAVYYCAADSGTVVFSLWWYEYYYWGQGTQVTVSS,low polyreactivity
2,QVQLVESGGGLVKAGGSLRLSCAASGSTFLWTTMGWYRPAPGKERELVAAISRSGGSTYYADSVKGRFTISRDNAKNTVYLQMISLKPEDTAVYYCAARTAGPWSWYHYWGQGTQVTVSS,high polyreactivity
3,QVQLVESGGGLVKAGGSLRLSCAASGSTFWYNAMGCYRQAPRKERELVAAITRGASTNYADSVKGRFTISRDNAKNTVYLQMNCLKPEDTAVYYCAGGPARWKGYYWGQGTQVTVSS,high polyreactivity
4,QVQLVESGGGLVKAGGSLRLSCAASGSTYQTYAMGWYRHAPGKERELVAAISFNGGSTYYADSVKGRFTISRDNAKNTVYLQMNSLKPEDTAVYYCAVEYTWASALYDGRHDYWGQGTQVTVSS,high polyreactivity
5,QVQLVESGGGLVKAGGSLRLSCVASGLMFGYCAMGWYRQPPGTERELVAVISWSGTSRYYADSVKGRFTISRDNAKNTVYLQMNSLKPEDTAVYYCIADTYGYYLWTGAVSAGDDYWVQGTQVTVSS,low polyreactivity
6,QVQLVESGGGLVKAGGSLRLTCSASGSIFRRNALRCSRHAPGKERELDAAISSGGSTNYADSVKGRFTISRDNAKNTVYLQMISQKPEDSAVYYCNTRYFRRARKGDSWGQGTQVTVSS,high polyreactivity
7,QVQLVESGGGLVKAGVSLRLICAASGSTFDGNDMGWYRQAHGKERELVATINSDDSKNYADSVKGRFTISRDNAKNTVYLQMNSLKPEDTAVYYCAARLYVTPILSYVERYTNDYWGQGTQVTVSS,low polyreactivity
8,QVQLVESGGGLVKAGVSLRLICAASGSTFWYNDRGSYRQSPGKERELVASNSWSGGDTYYADSVKGRLTISRDNAQNTVYFQMNRLKPEDTAVYNCAKGNNWISRLMDYWGQGTQVTVSS,low polyreactivity
9,QVQLVESGGGLVLAGGRLRLSCAASGRIFTRYAMGCYRQAPGKERELVAVITRSGGSTYYADSVKGRFTISRDIAKNTVYLQMNSLKPEDTAVYYCAAKYYGEMYYWGQGTQVTVSS,low polyreactivity
10,QVQLVESGGGLVLAGGRLRLSFAASGFIFYQYAKAWYRQATGKEWEFVAAISRNGGSTYYADSVKGRFTISRDNATNTVYLQMNSLKPEDTAVYYCNRDCGGLWSENGYWGQGPQVTVSS,high polyreactivity
11,QVQLVESGGGLVLAGGSLRLSCAASGITFFTYTMGWYRQAPGKERELVARIRWDGGSTYYADSVKGRFTISRDNAKNTVYLQMNSLKPEDTAVYYCAADYPYSTYDYWGQGTQVTVSS,low polyreactivity
12,QVQLVESGGGLVLAGGSLRLSCAASGRIFAVYAMGWYRQAPGQERELVAAIRARGGSTYYADSVKGRFTISRDNAKNTVDLQMNSLKPEDTPDYYCTARTSYSRTYRYYYWGQGTQVTVSS,high polyreactivity
13,QVQLVESGGGLVLAGGSLRLSCAASGRIFWNYAMGWYRQAPGKERELVASINWSGGSTYYADSVKGRFTISRDNAKNTVYLQMNSLKPEDTAVYYCNKDGRVYLDHDYWGQGTQVTVSS,low polyreactivity
14,QVQLVESGGGLVLAGGSLRLSCAASGRPFYGNTMGWYRQAPGKERELVAAISYSGGTTSYADSVKGRFTISRDNAKNTVYLQMNSLKPEDTAVYYCAKRYSYWWTSGYDYWGQGTQVTVSS,high polyreactivity
15,QVQLVESGGGLVLAGGSLRLSCAASGRTFGVYAMGWYRQAPGKERELVADITYRDGSTYYADSVKGRFTISRDNAKNTVYLQMHSLKPEDTAVYYCAAAESTWFDWVWMDYWGQGTQVTVSS,high polyreactivity
16,QVQLVESGGGLVLAGGSLRLSCAASGRTFGWNAMGWYRQAPGTERELVAAISWSGGSTSYADSVKARFTISRDNAKNTVYLQMNSLKPEDTAVYYCGKLDSYGMYYWGQGTQVTVSS,low polyreactivity
17,QVQLVESGGGLVLAGGSLRLSCAASGSMFGGYAMGWYLQSPGKERELVAAISYRGASTYYADSVKGRFTISRDNAKNTVYLQMNSVKPEDTAVYYCAVAARTRDRVLYGYDYWGQGTQVTVSS,low polyreactivity
18,QVQLVESGGGLVLAGGSLRLSCAASGSTFDTYAMGWYRQAPGKERELVAAITSGGITNYADSVKGRFTISRDNAKNTVYVQMNSLKPEDTAVYYCAKEGFWPRQARRLDYWGQGTQVTVSS,low polyreactivity
19,QVQLVESGGGLVLAGGSLRLSCASSGRIFYGYAMVWSRQAPGKERELVAAITSSGRTYYADSVKGRFSISRDNAKNTVYLLMNSLKPEDTAVYYCNVVTKFTGRGYDFWGQGTQVTVSS,high polyreactivity
20,QVQLVESGGGLVLAGGSLRLTCAASGRTFSQYTMGWYRQAPGKERELVAAISVSGTSTYYADSVKGRFTISRDNAKNTVYLQMNSLKPEDTAVYYCAAGYQRITRFAHRKYGYWGQGTQVTVSS,high polyreactivity
21,QVQLVESGGGLVLTGGSLRLSCAASGSILGTYAMGWYRQAPGKERELVARISRGGSTNYADSVKGRFTISRDNAKNTVYLQMNSLKPEDTAVYYCAKRLYLPESWRYYYWGQGTQVTVSS,high polyreactivity
22,QVQLVESGGGLVPAGGSLRLICAASGSTFYGYAIGWYRPAPGKVRELVATITSGGTRTRYADSVKGRFTISRDNAKKTVYLQMNSLKPEDTAVYYCNAVYRARSYDYWGQGTQVTVSS,high polyreactivity

row,Sequence,polyreactivity (PSR sort gate)
1,QVQLVESGGGLVPAGGSLRLSCAASGFIFRYNTMGWYRQAPGKERELVAAITSGDSTYYADSVKGRFTISRDNAKNTVYLQMNSLKPEDTAVFYCAAAAYDSNGRYYYWGQGTQVSVSS,high polyreactivity
2,QVQLVESGGGLVPAGGSLRLSCAASGFTFDSYAMGWYRQAPGKERELVAAMSYRGGTTYYADSVKGRFTISRDNAKNTVYLQMNSLKPEDTAVYYCTRLWKYGYNYWGQGTQVTVSS,high polyreactivity
3,QVQLVESGGGLVPAGGSLRLSCAASGITIGRNTMGWYRQAPGKERELVAAIDSGGNTYADSVKGRFTISRDNAKNTVYLQMNSLKPEDTAVYYCAVDGGEFSSYGYWGQGTQVTVSP,low polyreactivity
4,QVQLVESGGGLVPAGGSLRLSCAASGRIFRGYAMGWYRQAHGKEREFVAAITKNGGTTYYADSVKGRFTISRDNAKNTVYLQMNSLKPEDTAVYYCNKDGYPWPPNLDYWGQGTQVTVSS,low polyreactivity
5,QVQLVESGGGLVPAGGSLRLSCAASGRIFRVYAMGWYRQAPGKERELVASISSGGSTNYADSVKGRFTISRDNAKNTVYLQMNSLKPEDTAVYYCAADYWYRLFWYYGAPLDYWGQGTQVTVSS,low polyreactivity
6,QVQLVESGGGLVPAGGSLRLSCAASGRTFYTNSMGWYRQAPGKERELVAAITYSGGSTYYADSVKWRFTISRDNAKNTVYLHMNSLKPEDTAVYYCAADYRAPLDYWGQGTQVTVSS,low polyreactivity
7,QVQLVESGGGLVPAGGSLRLSCAASGSIFYHNAMGWYRQAPGKERELVAAISYRTGRTYYADSVKGRFTISRDNAKNTVYLQMNSLKPEDTAVYYCAAPYSWGQATQVTVSS,high polyreactivity
8,QVQLVESGGGLVPAGGSLRLSCAASGSMNTLYAMGWYRHAPGKERDLVADITRSGGSTYYADSVKGRFTISRDNAMNTVYLQMNSLKPEDTAVYYCAADKAPYSTEGDYWGQGTQVTVSS,high polyreactivity
9,QVQLVESGGGLVPAGGSLRLSCAASGSTFCPYAMGWYRQAPGKERELVADITSSGGSTYYADSVKGRFTISRDNAKNTVYLQMNSLKPEDTAVYYCAADWSNLGAYDYWGQRTQVTVSS,low polyreactivity
10,QVQLVESGGGLVPAGGSLRLSCAASGYTFQYNDRGWYRHAPGKETELVAGISIGGSTNYADSVKGRFTISRDNAKHTVYLQMNSLKPEDTAVYYCAARTLWFPGPTSTTVGYKDGYWGQGTQVTVSS,low polyreactivity
11,QVQLVESGGGLVPAGGSLRLSCASSGRTFYPYAMGRYRQAPGKERELVAAITTSGGRTYYADSVKGRFTISRDNAKNTVYLQMNSLKPEDTGVYYCAKVYREGEGKFDYWGQGTQVTVSS,high polyreactivity
12,QVQLVESGGGLVPAGGSRRLSCAASGFTFGGYAMGWYRQAPGKETELVAAMRSSGDTTYDADSVKGRFTISRDNAKKTVNLQMNSLKPEDTAVYYCAARWGTYWGGLGGDPDIDYDDWGQGTQVTVSS,low polyreactivity
13,QVQLVESGGGLVPARGSLRLSSAASGIIFSRYAMGWYRQAPGKERELVAAITRSGGDTYYADSVKGRFTISRDNAKTTFYLQMKSLTPEDSADYYCAAERTWYPWVATGYYWGQGTQVTVSS,low polyreactivity
14,QVQLVESGGGLVQAAGRLRLSCAASGRIFQWNAMGWSRQAPGKERQLVATISSRGGSTYYADSVKGRFTISRDNEKITVYLQMNSLIPEDTAVYYCAARYYAKYRSYDYWGQGSQVTVSS,high polyreactivity
15,QVQLVESGGGLVQAAGSLLLSCAPSGFIFYYNAMGWYRQAPGKETELVATIRGSGGSTYYADSVKGRFTISRDYAKNTVYLQMNSLKPEDTAVYYCAASVQYRRLKKFYYWGQGTQVTVSS,high polyreactivity
16,QVQLVESGGGLVQAAGSLRLSCAASGFTFLRYAMGWYRQAPGKERELVAGITKSGGTTYYADSVKGRFTISRDNAKNTVYLQMNSLKPEDTAVYYCNALYSRRRRPYTDDYDYWGQGTQVTVSS,high polyreactivity
17,QVQLVESGGGLVQAAGSLRLSCAASGLTFYYYAMGWYRQAPGKERELVAGISGSDGSTYYADSVNGRFTISRDNAKNSVYLQMNSLTPEDTAVYYCAAEYYYAWPLYYITDGIYDMYYWGQGTQVTVSS,low polyreactivity
18,QVQLVESGGGLVQAAGSLRLSCAASGRILDFYDMGWYRQAPGKERELVAAITSGTSTYYADSVKGRFTISRDNAKNTVYLQMNSMKPEDTAVYYCAAAHVPVGQYVYWYDYWGQGTQVTVSS,low polyreactivity
19,QVQLVESGGGLVQAAGSLRLSCAASGRTFSANAMGWYRQAPGKERELVATISSGGRTNYADSVKGRFTISRDNAKNTVYLQMNSLKPEDTAVYYCAKRGPYKRWYGRYDYCGQGTQVTVSS,low polyreactivity
20,QVQLVESGGGLVQAAGSLRLSCAASGSIFIQYAMGWYRQAPGKERELVAAITRRGGRTYYADSVKGRFTISRDNAKNTVYLQLNSLKPEDTAVYYCNAVPIGQWAYDYWGQGTQVTVSS,high polyreactivity
21,QVQLVESGGGLVQAAGSLRLSCAASGSIFTVYVMGWYRLAPGKEREFVATINWRGTSTYYADSVKGRFTISRDNEKNTVYLQMNSLKPEDTAVYYCAAVGSYYGGYDYWGQGTQVTVSS,high polyreactivity
